Measured values reported in patent publication US20030236190A1 (published 2003).
Positions of bridges follow the written chain, without caps; N, C: chain ends. No end group written: not given here.

B1: S173 (peptide)
peptide: LDALDRLMRYFEERPSL
B2: D8B12 (peptide)
peptide: WLEQERAWIWCEIQGSGCRA
modifications: not fully specified (bridges); cysteine pairing not given here
B3: H2C (peptide)
peptide: FHENFYDWFVQRVSKK
notes: also called H2C (D117)
B4: A6 (peptide)
peptide: SAKNFYDWFVKK
B5: RP15 (peptide)
peptide: SQAGSAFYAWFDQVLRTV
B6: G33 (peptide)
peptide: GIISQSCPESFYDWFAGQVSDPWWCW
B7: RP16 (peptide)
peptide: VMDARDDPFYHKLSELVT
B8: E8 (peptide)
peptide: GGTVWPGYEWLRNA
B9: RP4 (peptide)
peptide: PPWGARFYDAIEQLVFDNL
B10: 26L-3-G5-IR (peptide)
peptide: AETSAQVGWQRLWSVWPGDHWSTLDPFYHKLSELLRESGA
modifications: not fully specified (residue 27, N-terminus, C-terminus); printed as AETSAQVGWQRLWSVWPGDHWSTLDP9YHKLSELLRESGA
B11: 20E2A-4-G11-IGFR (peptide)
peptide: MNVFVSFYDAIDQLVCQRIGC
modifications: not fully specified (N-terminus, C-terminus, bridges); cysteine pairing not given here
B12: B6Hα-3-ES-IR (peptide)
peptide: RCGDEEGWQENRRDDPFYHKLSELFGGC
modifications: disulfide 2-28 (inferred); not fully specified (N-terminus, C-terminus)
B13: B6Hα-2-D8-IR (peptide)
peptide: SSETAKMVTGTRDDPFYHKLSELVQGS
B14: B6Hα-3-F1-IR (peptide)
peptide: CSMAAVAEAGDDDDPFYHKLSELCQGS
B15: R20β-E8-IR (peptide)
peptide: VRGFQGGTVWPGYEWLRNAA
modifications: not fully specified (N-terminus, C-terminus)
B16: 20E2A-3-A3-IGFR (peptide)
peptide: GHYFGSFYDAIDQLVAGMLPG
B17: B6Hα-3-E6-IR (peptide)
peptide: CGAKMTGTPNDPFYHKLSELLQRG
B18: 20E2Bβ-3-C7-IR (peptide)
peptide: QSGSGDFYDWLSRLIRGNGDG
modifications: not fully specified (N-terminus, C-terminus)
B19: 40F-4-D1-IGFR (peptide)
peptide: LSCLAYSRHGIWRPSTDLGLGRSVGEGSVSTRWRGYDWFE
B20: 20E2A-3-A4-IGFR (peptide)
peptide: AGSVTSFYDAMEQLVATGTSA
B21: B6Hα-1-23-IR (peptide)
peptide: GCITAENGAGDPFYHKLSELGGCS
modifications: disulfide 2-23 (inferred); not fully specified (N-terminus, C-terminus)
B22: RB596 (peptide)
peptide: MQNDDGSLDESFYDWFERQLGHHHHHHPG
notes: F1 monomer with a His tag
B23: RB540 (peptide)
peptide: MADYKDDDDKWLDQEWAWVQCEVYGRGCPSAAAGAPVPYPDPLEPRPG
notes: Recombinant F6 monomer peptide with tags at both ends
B24: RB539 (peptide)
peptide: MADYKDDDDKWLDQEWAWVQCEVYGRGCPSGGSGGSGSLDESFYDWFERQLGKKAAAGAPVPYPDPLEPRPG
notes: Recombinant F6-F1 (Site 2-Site 1) dimer peptide with tags at both ends
B25: RB626 (peptide)
peptide: MADYKDEIEAEWGRVRCLVYGRCVGGGGSGGSGGSGGSGSLDESFYDWFERQLGKKAAAGAPVPYPDPLEPRPG
notes: Recombinant F6-F1 dimer peptide with tags at both ends
B26: RB508 (peptide)
peptide: DYKDDDDKVRVDWLQRNANFYDWFVAELGGGSGGSGRVDWLQRNANFYDWFVAELGAAAGAPVPYPDPLEPRSA
B27: RB622 (peptide)
peptide: MADYKDDDDKWLDQEWAWVQCEVYGRGCPSTPKPPTPPPLSADGSLDESFYDWFERQLGKKAAAGAPVPYPDPLEPRPG
notes: as for B25
B28: RB535 (peptide)
peptide: MADYKDDDDKGSLDESFYDWFERQLGKKGGSGGSGGSGGSGSLDESFYDWFERQLGKKAAAGAPVPYPDPLEPRPG
notes: Recombinant F1-F1 dimer peptide with tags at both ends
B29: RB538 (peptide)
peptide: MADYKDDDDKGSLDESFYDWFERQLGKKGGSGGSGGSGGSWLDQEWAWVQCEVYGRGCPSAAAGAPVPYPDPLEPRPG
notes: Recombinant F1-F6 (Site 1-Site 2) dimer peptide with tags at both ends
B30: RB570 (peptide)
peptide: MQNDDGSLDESFYDWFERQLGEEEGGDHHHHHHPG
notes: F1 monomer with a His tag
B31: RB521 (peptide)
peptide: MADYKDDDDKGSLDESFYDWFERQLGKKGGSGGSGSLDESFYDWFERQLGKKAAAGAPVPYPDPLEPRPG
notes: as for B28
B32: RB509 (peptide)
peptide: DYKDDDDKVRVDWLQRNANFYAWFVAELGGGSGGSGGSGGSGRVDWLQRNANFYDWFVAELGAAAGAPVPYPDPLEPRAA
B33: RB625 (peptide)
peptide: MADYKDDDDKWLDQEWAWVQCEVYGRGCPSQPPPPDITTHRADPQGSLDESFYDWFERQLGKKAAAGAPVPYPDPLEPRPG
notes: as for B25
B34: RB537 (peptide)
peptide: MADYKDDDDKGSLDESFYDWFERQLGKKGGSGGSWLDQEWAWVQCEVYGRGCPSAAAGAPVPYPDPLEPRPG
notes: as for B29
B35: RB517 (peptide)
peptide: DYKDDDDKHLCVLEELFWGASLFGYCSGGGSGGSHLCVLEELFWGASLFGYCSGAAAGAPVPYPDPLEPRAA
B36: RB569 (peptide)
peptide: MGSLDESFYDWFERQLGEEEGGDHHHHHHPG
notes: F1 monomer with a His tag

Target: T1, recombinant human IGF-1R (rhIGF-1R) (human, UniProt P08069 31-935)
T1 construct: extracellular domain; Coated on plates in the TRF assay and europium-labelled (LANCE) in the TR-FRET assays; also called rhIGE-1R; Eu3+-rhIGF-1R
Assay: TR-FRET competition with b-20E2 for Eu3+-rhIGF-1R

Row | Binder | IC50 [nM]
1 | B1 | 6290
2 | B2 | 11300
3 | B3 | 460
4 | B4 | 31000

Target: T2, soluble human insulin receptor-immunoglobulin heavy chain chimera (sIR-Fc) (human, UniProt P06213 28-956, limits assumed)
T2 construct: extracellular domain; also called sIR-Ec; not shown: immunoglobulin heavy chain constant domains
Assay: fluorescence polarization competition with FITC-RP9 for sIR-Fc

Row | Binder | IC50 [nM]
5 | B5 | 28
6 | B6 | 139
7 | B7 | 6400
8 | B8 | 206
9 | B3 | 66
10 | B9 | 17

Target: T3, Insulin receptor (IR) prepared according to Bass et al., 1996 (human, UniProt P06213 28-956)
T3 construct: extracellular domain; also called soluble IR (Bass construct); sIR-Fc; not shown: immunoglobulin heavy chain constant domains of the Bass chimera
Assay: phage ELISA; ratio over background for IR divided by that for IGF-1R

Row | Binder | IR/IGF-1R ratio comparison [ratio]
11 | B10 | 0.7
12 | B11 | 0.4
13 | B12 | 0.3
14 | B13 | 0.3
15 | B14 | 0.5
16 | B15 | 0.1
17 | B16 | 0.5
18 | B17 | 0.5
19 | B18 | 0.5
20 | B19 | 0.1
21 | B20 | 0.7
22 | B21 | 0.3

Target: T4, Soluble IGF-1R (UniProt P08069 31-935, limits assumed)
T4 construct: extracellular domain; Bought reagent; also called sIGF-1R; insulin-like growth factor receptor
Assay: phage ELISA; ratio over background for IGF-1R divided by that for IR

Row | Binder | IGF-1R/IR ratio comparison [ratio]
23 | B11 | 2.6
24 | B12 | 2.9
25 | B13 | 3
26 | B14 | 1.8
27 | B15 | 9.7
28 | B16 | 1.9
29 | B17 | 1.9
30 | B18 | 2
31 | B19 | 13.1
32 | B20 | 1.4
33 | B21 | 2.9

Target: T3, Insulin receptor (IR) prepared …
Assay: not given

Row | Binder | ratio over background, IR [ratio over background]
34 | B10 | 1.4
35 | B11 | 1.3
36 | B12 | 1
37 | B13 | 1
38 | B14 | 1.3
39 | B15 | 3.6
40 | B16 | 1.5
41 | B17 | 1.2
42 | B18 | 1.5
43 | B19 | 0.3
44 | B20 | 1.8
45 | B21 | 1.1

Target: T1, recombinant human IGF-1R (rhIGF-1R)
Assay: TR-FRET competition with b-20E2 for rhIGF-1R

Row | Binder | IC50 [nM]
46 | B5 | 706
47 | B6 | 178
48 | B7 | 961
49 | B9 | 8100

Target: T1, recombinant human IGF-1R (rhIGF-1R)
Assay: ratio of the IC50 at rhIGF-1R (TR-FRET) to the IC50 at sIR-Fc (FP); higher values indicate higher affinity for IR than IGF-1R

Row | Binder | Binding Ratio IGF-1R/IR
50 | B5 | 25
51 | B6 | 1.3
52 | B7 | 0.15
53 | B9 | 476

Target: T4, Soluble IGF-1R
Assay: not given

Row | Binder | ratio over background, IGF-1R [ratio over background]
54 | B11 | 3.3
55 | B12 | 2.9
56 | B13 | 3
57 | B14 | 2.4
58 | B15 | 34.9
59 | B16 | 3
60 | B17 | 2.3
61 | B18 | 3.1
62 | B19 | 4.6
63 | B20 | 2.5
64 | B21 | 3.2

Target: human insulin receptor (HIR) (human, UniProt P06213 28-1382, limits assumed)
Assay: HIR Kd, Table 14; competition with 125I-insulin on solubilised HIR (method of Example 3, not restated for this table)

Row | Binder | Kd [nM]
65 | B22 | 94
66 | B23 | ~100
67 | B24 | 0.7
68 | B25 | 0.3
69 | B26 | 150
70 | B27 | 1
71 | B28 | ~100
72 | B29 | 0.017
73 | B30 | 25
74 | B31 | 44
75 | B32 | 55
76 | B33 | 0.38
77 | B34 | 0.059
78 | B35 | 6000
79 | B36 | 210
